{"source": "patent CN113150156A", "about": "(ZHEJIANG BORUI BIOPHARMACEUTICAL CO LTD, dated 2021)", "key": {"[1]": {"molecular_target": "T1, 生物素标记的TIGIT (Acrobiosystems, TIT-H82E5) (UniProt Q495A1)", "T1 sequence (biotin-labelled (生物素标记), site not stated, looked up)": "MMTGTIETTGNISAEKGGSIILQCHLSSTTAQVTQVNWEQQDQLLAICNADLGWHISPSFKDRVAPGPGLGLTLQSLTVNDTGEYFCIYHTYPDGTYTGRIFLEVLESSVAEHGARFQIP", "experiment": "competition ELISA, control IgG, inhibition of biotinylated TIGIT binding to coated CD155"}, "[2]": {"molecular_target": "T2, TIGIT on 293T-TIGIT cells (UniProt Q495A1 22-244)", "T2 construct": "whole, on cells; also called 细胞膜上TIGIT; 293T-TIGIT细胞", "T2 sequence (looked up)": "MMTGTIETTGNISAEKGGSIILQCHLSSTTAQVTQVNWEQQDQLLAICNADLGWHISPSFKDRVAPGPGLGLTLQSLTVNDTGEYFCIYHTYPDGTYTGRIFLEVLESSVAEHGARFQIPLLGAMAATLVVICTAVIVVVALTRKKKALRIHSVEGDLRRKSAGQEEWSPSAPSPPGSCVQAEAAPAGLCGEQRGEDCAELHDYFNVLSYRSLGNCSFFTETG", "experiment": "flow cytometry on 293T-TIGIT cells, FITC goat anti-mouse IgG detection"}, "[3]": {"molecular_target": "T3, 生物素标记的TIGIT (Acrobiosystems, TIT-H82E5) (UniProt Q495A1 22-141, biotin-labelled (生物素标记), site not stated)", "T3 sequence (looked up)": "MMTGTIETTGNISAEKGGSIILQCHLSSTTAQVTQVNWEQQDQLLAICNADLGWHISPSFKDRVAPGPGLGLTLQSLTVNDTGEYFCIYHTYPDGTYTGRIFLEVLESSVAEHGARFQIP", "experiment": "competition ELISA, blocking of biotinylated TIGIT binding to coated CD112"}, "[4]": {"molecular_target": "T3, 生物素标记的TIGIT (Acrobiosystems, TIT-H82E5)", "experiment": "competition ELISA, blocking of biotinylated TIGIT binding to coated CD155"}, "[5]": {"molecular_target": "T4, 人TIGIT蛋白 (Acrobiosystems, TIT-H52H3) (human, UniProt Q495A1 22-141)", "T4 construct": "Bought recombinant protein coated on ELISA plates", "T4 sequence (looked up)": "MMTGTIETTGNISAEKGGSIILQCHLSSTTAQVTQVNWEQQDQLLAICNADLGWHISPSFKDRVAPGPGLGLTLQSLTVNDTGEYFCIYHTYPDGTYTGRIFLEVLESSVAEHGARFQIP", "experiment": "ELISA, human TIGIT protein coated at 0.5 μg/ml, goat anti-mouse IgG detection"}}}
{"molecule": "IgG1 (antibody)", "values": [{"measurement": "抑制率(%)", "setting": "[1]", "value": 1.68, "unit": "%"}]}
{"molecule": "7D3 (antibody, V domains shown, Mouse monoclonal antibody from a hybridoma (BALB/c x SP2/0); also called 鼠源抗体; 鼠源抗TIGIT抗体7D3) VH: EVQLQQSGPELVKPGASVKMSCKASGYTFTSYVMHWVKQKPGQGLEWIGYINPYNDGTKYNEKFKGKATLTSDKSSSTAYMELSSLTSEDSAVYYCARRGNGPLRVFAYWGQGTTVTVSS VL: DIVMTQTPKFMSTSVGDRVSITCKASQDVSTAVAWYQQKPGQSPKLLIYSASYRYTGVPDRFTGSGSGTDFTFTISSVQAEGLAVYYCQQHYSTPPTFGAGTKLEIK", "values": [{"measurement": "EC50", "setting": "[2]", "value": 0.0113, "unit": "nM"}, {"measurement": "IC50", "setting": "[3]", "value": 3.97, "unit": "nM"}, {"measurement": "IC50", "setting": "[4]", "value": 0.804, "unit": "nM"}, {"measurement": "EC50", "setting": "[5]", "value": 0.108, "unit": "nM"}]}
